In US20240131207A1, “NUCLIDE-LABELED INHIBITORY PEPTIDE, AND PREPARATION METHOD THEREFOR AND USE THEREOF” (SUZHOU UNIVERSITY, priority 2022, published 2024):
No end group written: not given here. *: point of attachment. DOTA = O=C(O)CN1CCN(CC(=O)O)CCN(CC(=O)*)CCN(CC(=O)O)CC1

What was measured:
B16F10 cells [1] = test: Growth inhibitory effect of 177Lu-AP1 on B16F10 cells (CCK8); format: cell-based, mice; settings: radioactive dose 600 μCi/mL, incubated 24 hours, then 24 hours in normal medium
Protocol: • (1) The B16F10 cells of mice in the logarithmic growth phase were taken and digested by using pancreatin, and the cell concentration was adjusted to 4×10^4 cells/mL; the cells were plated in a 96-well plate at a volume of 100 μL per well, the cell concentration was 4×10^3 cells per well, and the cells were incubated overnight in an incubator at 37° C./5% CO2; • (2) the medium was replaced for each group of cells, 100 μL of culture solution with a specified dosage was added, and ^177LuCl3 and ^177Lu-AP1 with the same dosage concentration were added into two 96-well plates, wherein dosage concentrations were 0, 10, 100, 200, 300, 400, 500 and 600 μCi/mL; after 24 h, the normal culture medium was used to continue culturing; • (3) a culture medium with 10 μL of CCK8 solution (10%) was added at 24 h and 48 h after the normal culture medium was used, and the culture was continued in the incubator for 1 h; • (4) after 1 h, the absorbance at 450 nm of each well was measured using a microplate reader. The relative survival rate of the cells was calculated according to the measured OD value. Cell viability=(material added group−blank group)/(control group−blank group)×100%.

B16F10 cells [2] = settings: 0-100 μg/mL
Protocol: (§1) • (1) The skin melanoma B16F10 cells of mice in the logarithmic growth phase were taken and digested by using 0.25% pancreatin, and the cell concentration was adjusted to 6×10^4/mL; the cells were plated in a 96-well plate at a volume of 100 μL per well, the cell concentration was 6×10^3 cells per well, and the cells were incubated overnight in an incubator at 37° C./5% CO2; • (2) the medium was replaced for each group of cells, and 100 μL of a culture solution with a specified concentration was added, wherein the concentration of each dose was 0, 0.5, 1, 5, 10, 20, 50 and 100 μg/mL; after 24 h, a DMEM medium (containing 10% of North American fetal bovine serum and 1% of double antibody) was used, and the culture was continued; • (3) 10 μL of CCK8 solution (10%) was added at 0 h and 24 h after the normal culture medium was used, and the culture was continued in the incubator for 1 h; • (4) after 1 h, the absorbance at 450 nm of each well was measured using a microplate reader. The relative survival rate of the cells was calculated according to the measured OD value. Cell viability=(material added group−blank group)/(control group−blank group)×100%.

in vitro = settings: mouse, B16F10 cells
Protocol: as §1

B16F10 cells [3] = test: Binding and inhibition assay of B16F10 cells to 68Ga-AP1; format: cell-based, mice; settings: 0.11 MBq/mL 68Ga-AP1 with AP1 0-360 μg/mL, 1 h
Protocol: • (1) When the cells grew to more than 90%, the cells were digested with 0.25% pancreatin, the cell concentration was adjusted to 1×10^5 cells/mL, the cells were plated in a 24-well plate, and 0.5 mL of culture medium was added to each well. […] 0.5 mL of 0.11 MBq/mL ^68Ga-AP1 was the source count T. • (5) The radioactivity of the liquid (^68Ga-AP1) detected and collected by the radioimmunotube of each concentration of AP1 was denoted as count B. • (6) The cellular uptake was B/T×100%, and the half inhibitory concentrations were fitted based on different concentrations of AP1. FIGS. 5A-5B show a competitive binding and inhibition experiment between ^68GaAP1 and AP1.

[4] = Stability analysis of 68Ga/177Lu labeled product in PBS by HPLC; format: physicochemical; settings: within 24 hours, stability data determined with 177Lu
Protocol: • (1) The HPLC mobile phases were water and acetonitrile (each containing 0.1% TFA), and the gradient was set from 20% to 50% acetonitrile concentration over a period of 30 minutes. • (2) The injection analysis of ^68Ga/^177Lu-AP1 in PBS at different time points (0, 1.5, 3.5, and 24 h) under the same condition is shown in FIG. 2 (identification and purification of ^68Ga/^177Lu-labeled AP1 product) (The radiation peak of the product is mainly the peak of the polypeptide. Since the half-life of ^68Ga is only 68 minutes, and the amount of radiation injected is very small, the stability data is determined by ^177Lu (6.71 days) with a longer half-life).

B16F10 cells [5] = test system: B16F10 cells
Protocol: Safety of radiolabeled ^68Ga-AP1 imaging probe • (1) The B16F10 cells of mice in the logarithmic growth phase were taken and digested by using 0.25% pancreatin, and the cell concentration was adjusted to 6×10^4 cells/mL; the cells were plated in a 96-well plate at a volume of 100 μL per well, the cell concentration was 6×10^3 cells per well, and the cells were incubated overnight in an incubator at 37° C./5% CO2; • (2) the medium was replaced for each group of cells, 100 μL of a culture solution with a specified concentration was added, and the radioactive doses were taken as 0, 1, 2.5, 10, 25, 50, 100, and 200 μCi/mL; after 12 h, the normal culture medium was used and 10 μL of CCK8 solution (10%) was added, and the culture was continued in an incubator for 1 h; • (3) after 1 h, the absorbance at 450 nm of each well was measured using a microplate reader. The relative survival rate of the cells was calculated according to the measured OD value. Cell viability=(material added group−blank group)/(control group−blank group)×100%.

[6] = mice, tail vein injection, two-compartment model
Protocol: (§2) • (1) The ^68Ga-AP1 imaging probe was used for screening a high expression group and a low expression group of tumor ASF1a, and 20 μCi of ^68Ga-AP1 was injected into the tail vein of each mouse. After 0.5, 1.5, 3.5 and 5.5 h after injection, each important organ was dissected and separated. Each organ weight was measured and calculated as % ID/g=organ radioactivity count/(organ weight×source count)×100% for 3 mice per time point. • (2) Mice were sacrificed at 10 min, 20 min, 30 min, 1.5 h, 3.5 h, 5.5 h respectively after tail vein injection of ^68Ga-AP1, the radioactivity of the organs in the blood of the mice was measured, n=3 was measured at each time point, and the mean value of each time point was taken, and an intravascular two-compartment model was selected to fit hemodynamic parameters using PKSover software.

in vivo = settings: mouse, tumor, iv, 20 uCi per mouse, total radioactivity, after 5.5 hours, B16F10 tumor-bearing mouse
Protocol: as §2

[7] = B16F10 tumor-bearing mouse, tail vein injection
Protocol: as §2

[Cl][177Lu]([Cl])[Cl] [^177LuCl3]
cell survival rate after 24 hours (B16F10 cells [1]): 82.19±16.69%

{DOTA}-YGRKKRRQRRRCASTEEKWARLARRIAGAGGVTLDGFGGCA (cysteines drawn unpaired) [AP1]
biocompatibility of the polypeptide (B16F10 cells [2]): good biocompatibility
viability at 24 h, 100 µg/mL (in vitro): 94.7 ± 11%
viability at 48 h, 100 µg/mL (in vitro): 103 ± 5.76%

{DOTA}-YGRKKRRQRRRCASTEEKWARLARRIAGAGGVTLDGFGGCA-OH (N-terminus assumed; cysteines drawn unpaired) [^68Ga-AP1, metal not drawn]
uptake in B16F10 cells inhibited by AP1 (B16F10 cells [3]): can be specifically uptaken
stability of the labeled product [4]: good stability
biocompatibility of the PET/CT imaging probe (B16F10 cells [5]; 0-200 μCi/mL): good biocompatibility
cell survival rate (B16F10 cells [5]; radioactivity at most 200 μCi/mL): 95.31±9.05%
half-discharge time in the blood [6]: 2.1933 h
mean residence time (MRT) in vivo [6]: 3.1643 h
tissue uptake at 5.5 h (in vivo; tumor % ID/g in tumor high-intake group, high-intake group): 18.9 ± 0.248 %ID/g
tissue uptake at 5.5 h (in vivo; tumor % ID/g in tumor low-intake group, low-intake group): 5.24 ± 1.73 %ID/g
route of metabolism (in vivo biodistribution) [7]: mainly metabolized through liver and kidney
